Measured values reported in patent publication US20050170442.

Biological target: T1, Biotin-labeled fluorescent peptide CPRPFSVPP(S*)PDK-(5-FAM) (not fully specified)
T1 chain: CPRPFSVPPSPDK

B1: GSK3α, rHuman (protein)
chain: MSGGGPSGGGPGGSGRARTSSFAEPGGGGGGGGGGPGGSASGPGGTGGGKASVGAMGGGVGASSSGGGPGGSGGGGSGGPGAGTSFPPPGVKLGRDSGKVTTVVATLGQGPERSQEVAYTDIKVIGNGSFGVVYQARLAETRELVAIKKVLQDKRFKNRELQIMRKLDHCNIVRLRYFFYSSGEKKDELYLNLVLEYVPETVYRVARHFTKAKLTIPILYVKVYMYQLFRSLAYIHSQGVCHRDIKPQNLLVDPDTAVLKLCDFGSAKQLVRGEPNVSYICSRYYRAPELIFGATDYTSSIDVWSAGCVLAELLLGQPIFPGDSGVDQLVEIIKVLGTPTREQIREMNPNYTEFKFPQIKAHPWTKVFKSRTPPEAIALCSSLLEYTPSSRLSPLEACAHSFFDELRCLGTQLPNNRPLPPLFNFSAGELSIQPSLNAILIPPHLRSPAGTTTLTPSSQALTETPTSSDWQSTDATPTLTNSS
TR-FRET ratio (Em520/Em495) after kinase reaction, chymotrypsin development and Tb-streptavidin detection: with GSK3a, a higher TR-FRET ratio than without GSK3α is seen | TR-FRET ratio (Em520/Em495) in the chymotrypsin titration: with GSK3α a higher TR-FRET ratio than without GSK3α is seen | amount of enzyme/well needed for roughly 50% maximal signal at 10 µM ATP/well (TR-FRET enzyme titration): 0.05 µg/ml for GSK3α
